Results taken from the supplement of paper PMC9112550, “Optimization of the antimicrobial peptide Bac7 by deep mutational scanning” (BMC Biology, 2022).

Test system: Escherichia coli TOP10
Test: shrunken log2 fold change of peptide-encoding DNA abundance (4.5 h post-induction vs induction); higher = less antimicrobial activity (less host growth inhibition)
Conditions: time post-induction: 4.5 h; library: site-saturation at positions 5, 18, 19, 20
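Also: peptides expressed intracellularly from a pBAD plasmid library in pooled LB shake-flask culture, induced with 0.3% L-arabinose, DNA abundance read by NGS, three biological replicates, DESeq2 with apeglm shrinkage.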

Sequence	shrunken log2 fold change
RRIRDRPPRLPRPRPRPSWDPRP	0.199
RRIRSRPPRLPRPRPRPLTRPRP	0.0286
RRIRCRPPRLPRPRPRPTELPRP	-0.106
RRIRQRPPRLPRPRPRPWTLPRP	-0.158
RRIRSRPPRLPRPRPRPQIRPRP	0.267
RRIRLRPPRLPRPRPRPANMPRP	-0.0319
RRIRVRPPRLPRPRPRPAAHPRP	0.0619
RRIRWRPPRLPRPRPRPEALPRP	0.174
RRIRYRPPRLPRPRPRPLAWPRP	-0.0165
RRIRDRPPRLPRPRPRPRKGPRP	0.0785
RRIRFRPPRLPRPRPRPPNAPRP	0.353
RRIRFRPPRLPRPRPRPFDEPRP	-0.983
RRIRRRPPRLPRPRPRPTPMPRP	1.08
RRIRLRPPRLPRPRPRPSVIPRP	-0.183
RRIRHRPPRLPRPRPRPRGEPRP	-0.0677
RRIRGRPPRLPRPRPRPDVMPRP	1.33
RRIRGRPPRLPRPRPRPMMVPRP	0.294
RRIRQRPPRLPRPRPRPWSNPRP	-0.00145
RRIRQRPPRLPRPRPRPNARPRP	-0.0902
RRIRHRPPRLPRPRPRPCFKPRP	-1.25
RRIRVRPPRLPRPRPRPCVIPRP	-0.0142
RRIRMRPPRLPRPRPRPHEYPRP	-0.308
RRIRVRPPRLPRPRPRPLTAPRP	0.106
RRIRRRPPRLPRPRPRPDPEPRP	0.307
RRIRNRPPRLPRPRPRPPHMPRP	-0.217

Sequence	shrunken log2 fold change
RRIRNRPPRLPRPRPRPGLQPRP	-0.113
RRIRKRPPRLPRPRPRPRRAPRP	0.9
RRIRCRPPRLPRPRPRPHSCPRP	-0.132
RRIRKRPPRLPRPRPRPHNFPRP	-0.0511
RRIRVRPPRLPRPRPRPECIPRP	-0.0283
RRIRWRPPRLPRPRPRPWQAPRP	0.00325
RRIRSRPPRLPRPRPRPDGEPRP	0.0597
RRIRHRPPRLPRPRPRPNLKPRP	-0.465
RRIRVRPPRLPRPRPRPKAYPRP	0.0199
RRIRERPPRLPRPRPRPLLFPRP	-0.121
RRIRKRPPRLPRPRPRPQAWPRP	0.314
RRIRTRPPRLPRPRPRPIHSPRP	-0.191
RRIRIRPPRLPRPRPRPFSGPRP	-0.241
RRIRGRPPRLPRPRPRPYALPRP	0.0375
RRIRLRPPRLPRPRPRPYGMPRP	-0.0242
RRIRARPPRLPRPRPRPTCNPRP	0.327
RRIRMRPPRLPRPRPRPTAEPRP	2.75
RRIRRRPPRLPRPRPRPQVSPRP	0.0704
RRIRERPPRLPRPRPRPIRPPRP	-0.0241
RRIRYRPPRLPRPRPRPMAHPRP	-0.0234
RRIRNRPPRLPRPRPRPAGMPRP	-0.126
RRIRCRPPRLPRPRPRPTCTPRP	-0.2
RRIRWRPPRLPRPRPRPPAQPRP	0.54
RRIRNRPPRLPRPRPRPDTPPRP	0.0123
RRIRRRPPRLPRPRPRPCVIPRP	-0.0371

Sequence	shrunken log2 fold change
RRIRLRPPRLPRPRPRPACDPRP	0.15
RRIRQRPPRLPRPRPRPCIEPRP	0.015
RRIRPRPPRLPRPRPRPIRYPRP	0.00275
RRIRGRPPRLPRPRPRPFHSPRP	-0.155
RRIRTRPPRLPRPRPRPALDPRP	0.196
RRIRARPPRLPRPRPRPVAWPRP	0.474
RRIRLRPPRLPRPRPRPPEDPRP	0.0763
RRIRQRPPRLPRPRPRPATMPRP	-0.0699
RRIRNRPPRLPRPRPRPKPSPRP	0.137
RRIRERPPRLPRPRPRPWINPRP	-0.637
RRIRYRPPRLPRPRPRPRDPPRP	0.271
RRIRSRPPRLPRPRPRPRLVPRP	0.356
RRIRFRPPRLPRPRPRPGMIPRP	-0.224
RRIRCRPPRLPRPRPRPNPNPRP	-0.135
RRIRMRPPRLPRPRPRPSMIPRP	0.229
RRIRKRPPRLPRPRPRPSCCPRP	0.269
RRIRKRPPRLPRPRPRPYTAPRP	-0.338
RRIRVRPPRLPRPRPRPNLYPRP	-0.563
RRIRDRPPRLPRPRPRPSLGPRP	0.487
RRIRFRPPRLPRPRPRPIWIPRP	-0.234
RRIRCRPPRLPRPRPRPATCPRP	-0.0745
RRIRGRPPRLPRPRPRPKMFPRP	0.065
RRIRFRPPRLPRPRPRPDQLPRP	0.22
RRIRARPPRLPRPRPRPMGEPRP	0.1
RRIRLRPPRLPRPRPRPRKAPRP	0.022

Sequence	shrunken log2 fold change
RRIRWRPPRLPRPRPRPKNTPRP	-0.127
RRIRPRPPRLPRPRPRPPDQPRP	0.601
RRIRYRPPRLPRPRPRPRGAPRP	1.34
RRIRYRPPRLPRPRPRPCRWPRP	-0.267
RRIRTRPPRLPRPRPRPRKMPRP	-0.107
RRIRFRPPRLPRPRPRPDTTPRP	0.00968
RRIRQRPPRLPRPRPRPSYWPRP	-0.0858
RRIRHRPPRLPRPRPRPMHIPRP	-1.93
RRIRIRPPRLPRPRPRPTMTPRP	-0.0629
RRIRHRPPRLPRPRPRPCTCPRP	-0.0115
RRIRERPPRLPRPRPRPEKWPRP	-0.0225
RRIRMRPPRLPRPRPRPFYLPRP	-0.191
RRIRYRPPRLPRPRPRPHWHPRP	-0.912
RRIRARPPRLPRPRPRPPCCPRP	0.571
RRIRVRPPRLPRPRPRPIIRPRP	-0.199
RRIRMRPPRLPRPRPRPAVVPRP	0.287
RRIRARPPRLPRPRPRPCYSPRP	-0.525
RRIRIRPPRLPRPRPRPVCHPRP	-0.179
RRIRKRPPRLPRPRPRPDDFPRP	-0.00262
RRIRRRPPRLPRPRPRPKTRPRP	2.44
RRIRMRPPRLPRPRPRPDCDPRP	0.0709
RRIRRRPPRLPRPRPRPECPPRP	0.176
RRIRDRPPRLPRPRPRPHQNPRP	-0.303
RRIRQRPPRLPRPRPRPALCPRP	0.171
RRIRMRPPRLPRPRPRPPNNPRP	0.436

Sequence	shrunken log2 fold change
RRIRSRPPRLPRPRPRPLMNPRP	-0.204
RRIRGRPPRLPRPRPRPSRCPRP	-0.0851
RRIRNRPPRLPRPRPRPLHMPRP	-0.372
RRIRKRPPRLPRPRPRPGMSPRP	0.361
RRIRSRPPRLPRPRPRPNETPRP	-0.198
RRIRMRPPRLPRPRPRPTFCPRP	0.282
RRIRSRPPRLPRPRPRPLKLPRP	-0.15
RRIRMRPPRLPRPRPRPIHIPRP	-0.221
RRIRNRPPRLPRPRPRPGESPRP	-0.111
RRIRPRPPRLPRPRPRPDKQPRP	0.0524
RRIRYRPPRLPRPRPRPIVHPRP	-2.04
RRIRARPPRLPRPRPRPAIMPRP	0.161
RRIRDRPPRLPRPRPRPIMDPRP	0.308
RRIRVRPPRLPRPRPRPSSEPRP	-0.327
RRIRERPPRLPRPRPRPAEPPRP	-0.000777
RRIRWRPPRLPRPRPRPSTPPRP	0.0706
RRIRRRPPRLPRPRPRPLIWPRP	0.192
RRIRVRPPRLPRPRPRPTTHPRP	-0.0858
RRIRLRPPRLPRPRPRPFRLPRP	-0.0872
RRIRCRPPRLPRPRPRPPMTPRP	0.155
RRIRPRPPRLPRPRPRPWCPPRP	2.07
RRIRIRPPRLPRPRPRPCMDPRP	-0.695
RRIRARPPRLPRPRPRPLFEPRP	0.629
RRIRLRPPRLPRPRPRPWFGPRP	-0.149
RRIRIRPPRLPRPRPRPRWVPRP	0.171

Sequence	shrunken log2 fold change
RRIRSRPPRLPRPRPRPHVHPRP	-0.412
RRIRKRPPRLPRPRPRPGPHPRP	0.803
RRIRKRPPRLPRPRPRPPYTPRP	0.0509
RRIRWRPPRLPRPRPRPCWTPRP	0.0677
RRIRQRPPRLPRPRPRPMQFPRP	0.0624
RRIRRRPPRLPRPRPRPFIYPRP	-0.194
RRIRPRPPRLPRPRPRPNWQPRP	0.131
RRIRDRPPRLPRPRPRPFNQPRP	-0.733
RRIRVRPPRLPRPRPRPQEVPRP	-0.186
RRIRRRPPRLPRPRPRPIATPRP	0.0769
RRIRGRPPRLPRPRPRPLVMPRP	0.263
RRIRHRPPRLPRPRPRPSGAPRP	-0.0845
RRIRTRPPRLPRPRPRPQHFPRP	-0.0212
RRIRLRPPRLPRPRPRPVCSPRP	-0.14
RRIRQRPPRLPRPRPRPRSHPRP	0.183
RRIRGRPPRLPRPRPRPMHEPRP	0.928
RRIRNRPPRLPRPRPRPQPTPRP	0.0158
RRIRQRPPRLPRPRPRPFGYPRP	-0.148
RRIRRRPPRLPRPRPRPFGDPRP	-0.0397
RRIRPRPPRLPRPRPRPSTRPRP	-0.0318
RRIRYRPPRLPRPRPRPMIYPRP	-0.0142
RRIRQRPPRLPRPRPRPTMPPRP	0.2
RRIRGRPPRLPRPRPRPQVGPRP	0.395
RRIRGRPPRLPRPRPRPDYCPRP	0.0958
RRIRKRPPRLPRPRPRPPISPRP	0.22
